# T1: RBL2 (NM-005611), substrate peptide from a peptide library, Q08999
# T1 chain: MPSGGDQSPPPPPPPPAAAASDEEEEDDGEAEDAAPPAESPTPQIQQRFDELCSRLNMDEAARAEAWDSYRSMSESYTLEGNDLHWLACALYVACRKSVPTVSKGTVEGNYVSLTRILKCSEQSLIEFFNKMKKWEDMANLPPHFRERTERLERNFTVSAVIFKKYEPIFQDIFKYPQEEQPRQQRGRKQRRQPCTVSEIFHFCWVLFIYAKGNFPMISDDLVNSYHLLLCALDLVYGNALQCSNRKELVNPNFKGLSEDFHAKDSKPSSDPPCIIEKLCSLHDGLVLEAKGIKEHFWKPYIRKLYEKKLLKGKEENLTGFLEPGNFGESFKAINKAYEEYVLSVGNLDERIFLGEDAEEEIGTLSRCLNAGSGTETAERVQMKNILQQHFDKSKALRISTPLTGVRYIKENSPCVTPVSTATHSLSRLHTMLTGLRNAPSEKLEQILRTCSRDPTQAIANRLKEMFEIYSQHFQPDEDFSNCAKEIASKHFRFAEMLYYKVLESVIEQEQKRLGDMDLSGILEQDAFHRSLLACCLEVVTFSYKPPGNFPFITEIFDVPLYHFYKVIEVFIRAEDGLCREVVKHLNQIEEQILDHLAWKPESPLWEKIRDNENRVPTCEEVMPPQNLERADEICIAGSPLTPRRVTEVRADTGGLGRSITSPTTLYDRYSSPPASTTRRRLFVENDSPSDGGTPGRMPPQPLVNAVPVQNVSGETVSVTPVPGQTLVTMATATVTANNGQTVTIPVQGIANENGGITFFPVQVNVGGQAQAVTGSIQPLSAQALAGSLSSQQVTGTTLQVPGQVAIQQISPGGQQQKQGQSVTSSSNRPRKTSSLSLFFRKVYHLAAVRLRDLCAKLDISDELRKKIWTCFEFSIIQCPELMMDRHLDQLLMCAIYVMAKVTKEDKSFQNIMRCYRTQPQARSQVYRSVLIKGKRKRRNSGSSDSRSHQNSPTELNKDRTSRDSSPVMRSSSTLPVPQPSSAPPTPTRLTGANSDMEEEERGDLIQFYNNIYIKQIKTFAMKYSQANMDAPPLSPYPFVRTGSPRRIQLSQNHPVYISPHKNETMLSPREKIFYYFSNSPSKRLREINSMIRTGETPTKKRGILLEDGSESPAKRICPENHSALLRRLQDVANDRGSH
# T2: FoxO3a (NP-963853), substrate peptide from a peptide library, O43524
# T2 chain: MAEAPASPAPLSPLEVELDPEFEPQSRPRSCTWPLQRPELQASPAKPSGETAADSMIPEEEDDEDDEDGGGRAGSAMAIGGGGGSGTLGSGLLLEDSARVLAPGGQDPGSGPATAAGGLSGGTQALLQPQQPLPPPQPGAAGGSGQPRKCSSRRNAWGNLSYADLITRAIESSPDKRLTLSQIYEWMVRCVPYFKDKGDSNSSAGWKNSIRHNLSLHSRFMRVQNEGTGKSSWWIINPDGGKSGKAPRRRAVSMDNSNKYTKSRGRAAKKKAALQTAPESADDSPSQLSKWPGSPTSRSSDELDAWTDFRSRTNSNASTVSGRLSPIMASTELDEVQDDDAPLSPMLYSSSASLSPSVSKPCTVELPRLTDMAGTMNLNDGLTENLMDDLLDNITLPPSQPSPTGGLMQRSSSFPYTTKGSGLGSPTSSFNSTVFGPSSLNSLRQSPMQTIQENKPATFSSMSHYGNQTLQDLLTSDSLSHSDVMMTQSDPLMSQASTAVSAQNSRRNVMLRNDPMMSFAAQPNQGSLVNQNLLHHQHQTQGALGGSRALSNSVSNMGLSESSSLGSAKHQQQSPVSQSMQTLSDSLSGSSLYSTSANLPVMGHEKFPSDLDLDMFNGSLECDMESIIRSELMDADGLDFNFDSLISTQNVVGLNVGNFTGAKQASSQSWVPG
# B1: human Hip kinase 4 (HipK4), recombinant, expressed in Sf9 insect cells (protein)
# chain: MSTIQSETDCYDIIEVLGKGTFGEVAKGWRRSTGEMVAIKILKNDAYRNRIIKNELKLLHCMRGLDPEEAHVIRFLEFFHDALKFYLVFELLEQNLFEFQKENNFAPLPARHIRTVTLQVLTALARLKELAIIHADLKPENIMLVDQTRCPFRVKVIDFGSASIFSEVRYVKEPYIQSRFYRAPEILLGLPFCEKVDVWSLGCVMAELHLGWPLYPGNNEYDQVRYICETQGLPKPHLLHAACKAHHFFKRNPHPDAANPWQLKSSADYLAETKVRPLERRKYMLKSLDQIETVNGGSVASRLTFPDREALAEHADLKSMVELIKRMLTWESHERISPSAALRHPFVSMQQLRSAHETTHYYQLSLRSYRLSLQVEGKPPTPVVAAEDGTPYYCLAEEKEAAGMGSVAGSSPFFREEKAPGMQRAIDQLDDLSLQEAGHGLWGETCTNAVSDMMVPLKAAITGHHVPDSGPEPILAFYSSRLAGRHKARKPPAGSKSDSNFSNLIRLSQVSPEDDRPCRGSSWEEGEHLGASAEPLAILQRDEDGPNIDNMTMEAERPDPELFDPSSCPGEWLSEPDCTLESVRGPRAQGLPPRRSHQHGPPRGATSFLQHVTGHH
# Tests used:
# [1] = biological target: T1, RBL2 (NM-005611), substrate peptide …
# [2] = biological target: T2, FoxO3a (NP-963853), substrate peptide …
protein,measurement,setting,value
B1,"phosphorylation of library peptides (HTS kinase assay, streptavidin-SPA beads)",[1],"The proteins identified as HipK4 substrates with the aid of such an experimental approach are the following, inter alia; FoxO3a (NP-963853) and RBL2 (NM-005611)"
same,"phosphorylation of library peptides (HTS kinase assay, streptavidin-SPA beads)",[2],"The proteins identified as HipK4 substrates with the aid of such an experimental approach are the following, inter alia; FoxO3a (NP-963853) and RBL2 (NM-005611)"

# Source: patent US20090238836
